Here are results for 1 molecule from PMC6255864.

The target in experiment [1] is T1, annexin-V, membrane-bound trimeric form (A5) (human), P08758.
T1 chain: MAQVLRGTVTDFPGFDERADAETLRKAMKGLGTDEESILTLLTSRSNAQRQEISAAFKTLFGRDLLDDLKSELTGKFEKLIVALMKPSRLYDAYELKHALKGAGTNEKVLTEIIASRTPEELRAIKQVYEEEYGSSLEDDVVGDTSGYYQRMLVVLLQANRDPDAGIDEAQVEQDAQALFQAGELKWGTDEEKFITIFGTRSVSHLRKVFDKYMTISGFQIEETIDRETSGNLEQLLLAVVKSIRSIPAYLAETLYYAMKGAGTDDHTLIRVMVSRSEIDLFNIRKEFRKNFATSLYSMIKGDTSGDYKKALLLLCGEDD
Nature of the experiment: HS-AFM line scanning (HS-AFM-LS); line scanned across one protomer of the non-p6 trimer in the A5 p6-lattice, 2.4 ms per line; dwell-times in each orientation before rotation. The settings on record: remark: other sources report otherwise.

Experiment [2] addresses T1, annexin-V, membrane-bound trimeric form …. Nature of the experiment: HS-AFM height spectroscopy (HS-AFM-HS); tip on one protomer of the rotating non-p6 trimer at the centre of the hexagonal A5 p6-lattice; dwell-times in the 0° and 60° orientations; captured at 655 kHz. The note with it: remark: other sources report otherwise.

B1: annexin-V, membrane-bound trimeric form (A5), P08758 1-320 (natural protein)
chain: T1 chain
In the case of B1, in experiment [1], the average dwell-time in the 0° or 60° orientation before rotation turned out to be 35 ms, the peak of the distribution of state dwell-times before rotation (Gaussian 1 of 3) came out at 13 ms, the peak of the distribution of state dwell-times before rotation (Gaussian 2 of 3) worked out at 41 ms and the peak of the distribution of state dwell-times before rotation (Gaussian 3 of 3) is 96 ms. Further, the average dwell-time in the 0° or 60° orientation before rotation in experiment [2] is 26 ms.
